Laboratory results published in US10919943B2, “Mutant proteins enabling agrochemical control of plant gene expression” (The Regents of the University of California, priority 2016, dated 2021).
Changes are numbered by the printed parent chain. Numbers in names are those of the source.

B1: P88S: PYR1 mutant (protein, UniProt O49686 1-191, looked up, variant P88S)
Abscisic acid receptor PYR1: MPSELTPEERSELKNSIAEFHTYQLDPGSCSSLHAQRIHAPPELVWSIVRRFDKPQTYKHFIKSCSVEQNFEMRVGCTRDVIVISGLSANTSTERLDILDDERRVTGFSIIGGEHRLTNYKSVTTVHRFEKENRIWTVVLESYVVDMPEGNSEDDTRMFADTVVKLNLQKLATVAEAMARNSGDGSGSQVT
B2: P88F: PYR1 mutant (protein, UniProt O49686 1-191, looked up, variant P88F)
Abscisic acid receptor PYR1: B1 Abscisic acid receptor PYR1 with S88F
B3: A89N: PYR1 mutant (protein, UniProt O49686 1-191, looked up, variant A89N)
Abscisic acid receptor PYR1: B1 Abscisic acid receptor PYR1 with S88P, A89N
B4: A89Y: PYR1 mutant (protein, UniProt O49686 1-191, looked up, variant A89Y)
Abscisic acid receptor PYR1: B1 Abscisic acid receptor PYR1 with S88P, A89Y
B5: H115L: PYR1 mutant (protein, UniProt O49686 1-191, looked up, variant H115L)
Abscisic acid receptor PYR1: B1 Abscisic acid receptor PYR1 with S88P, H115L
B6: A89D: PYR1 mutant (protein, UniProt O49686 1-191, looked up, variant A89D)
Abscisic acid receptor PYR1: B1 Abscisic acid receptor PYR1 with S88P, A89D
B7: A89K: PYR1 mutant (protein, UniProt O49686 1-191, looked up, variant A89K)
Abscisic acid receptor PYR1: B1 Abscisic acid receptor PYR1 with S88P, A89K
B8: A89M: PYR1 mutant (protein, UniProt O49686 1-191, looked up, variant A89M)
Abscisic acid receptor PYR1: B1 Abscisic acid receptor PYR1 with S88P, A89M
B9: P88W: PYR1 mutant (protein, UniProt O49686 1-191, looked up, variant P88W)
Abscisic acid receptor PYR1: B1 Abscisic acid receptor PYR1 with S88W
B10: A89L: PYR1 mutant (protein, UniProt O49686 1-191, looked up, variant A89L)
Abscisic acid receptor PYR1: B1 Abscisic acid receptor PYR1 with S88P, A89L
B11: A89V: PYR1 mutant (protein, UniProt O49686 1-191, looked up, variant A89V)
Abscisic acid receptor PYR1: B1 Abscisic acid receptor PYR1 with S88P, A89V
B12: A89P: PYR1 mutant (protein, UniProt O49686 1-191, looked up, variant A89P)
Abscisic acid receptor PYR1: B1 Abscisic acid receptor PYR1 with S88P, A89P
B13: P88V: PYR1 mutant (protein, UniProt O49686 1-191, looked up, variant P88V)
Abscisic acid receptor PYR1: B1 Abscisic acid receptor PYR1 with S88V
B14: H115A: PYR1 mutant (protein, UniProt O49686 1-191, looked up, variant H115A)
Abscisic acid receptor PYR1: B1 Abscisic acid receptor PYR1 with S88P, H115A
B15: A89S: PYR1 mutant (protein, UniProt O49686 1-191, looked up, variant A89S)
Abscisic acid receptor PYR1: B1 Abscisic acid receptor PYR1 with S88P, A89S
B16: H115P: PYR1 mutant (protein, UniProt O49686 1-191, looked up, variant H115P)
Abscisic acid receptor PYR1: B1 Abscisic acid receptor PYR1 with S88P, H115P
B17: A89E: PYR1 mutant (protein, UniProt O49686 1-191, looked up, variant A89E)
Abscisic acid receptor PYR1: B1 Abscisic acid receptor PYR1 with S88P, A89E
B18: A89C: PYR1 mutant (protein, UniProt O49686 1-191, looked up, variant A89C)
Abscisic acid receptor PYR1: B1 Abscisic acid receptor PYR1 with S88P, A89C
B19: H115S: PYR1 mutant (protein, UniProt O49686 1-191, looked up, variant H115S)
Abscisic acid receptor PYR1: B1 Abscisic acid receptor PYR1 with S88P, H115S
B20: H115T: PYR1 mutant (protein, UniProt O49686 1-191, looked up, variant H115T)
Abscisic acid receptor PYR1: B1 Abscisic acid receptor PYR1 with S88P, H115T
B21: A89H: PYR1 mutant (protein, UniProt O49686 1-191, looked up, variant A89H)
Abscisic acid receptor PYR1: B1 Abscisic acid receptor PYR1 with S88P, A89H
B22: P88K: PYR1 mutant (protein, UniProt O49686 1-191, looked up, variant P88K)
Abscisic acid receptor PYR1: B1 Abscisic acid receptor PYR1 with S88K
B23: P88G: PYR1 mutant (protein, UniProt O49686 1-191, looked up, variant P88G)
Abscisic acid receptor PYR1: B1 Abscisic acid receptor PYR1 with S88G
B24: P88T: PYR1 mutant (protein, UniProt O49686 1-191, looked up, variant P88T)
Abscisic acid receptor PYR1: B1 Abscisic acid receptor PYR1 with S88T
B25: H115Q: PYR1 mutant (protein, UniProt O49686 1-191, looked up, variant H115Q)
Abscisic acid receptor PYR1: B1 Abscisic acid receptor PYR1 with S88P, H115Q
B26: P88Y: PYR1 mutant (protein, UniProt O49686 1-191, looked up, variant P88Y)
Abscisic acid receptor PYR1: B1 Abscisic acid receptor PYR1 with S88Y
B27: A89F: PYR1 mutant (protein, UniProt O49686 1-191, looked up, variant A89F)
Abscisic acid receptor PYR1: B1 Abscisic acid receptor PYR1 with S88P, A89F
B28: P88I: PYR1 mutant (protein, UniProt O49686 1-191, looked up, variant P88I)
Abscisic acid receptor PYR1: B1 Abscisic acid receptor PYR1 with S88I
B29: A89I: PYR1 mutant (protein, UniProt O49686 1-191, looked up, variant A89I)
Abscisic acid receptor PYR1: B1 Abscisic acid receptor PYR1 with S88P, A89I
B30: P88C: PYR1 mutant (protein, UniProt O49686 1-191, looked up, variant P88C)
Abscisic acid receptor PYR1: B1 Abscisic acid receptor PYR1 with S88C
B31: P88D: PYR1 mutant (protein, UniProt O49686 1-191, looked up, variant P88D)
Abscisic acid receptor PYR1: B1 Abscisic acid receptor PYR1 with S88D
B32: A89T: PYR1 mutant (protein, UniProt O49686 1-191, looked up, variant A89T)
Abscisic acid receptor PYR1: B1 Abscisic acid receptor PYR1 with S88P, A89T
B33: A89R: PYR1 mutant (protein, UniProt O49686 1-191, looked up, variant A89R)
Abscisic acid receptor PYR1: B1 Abscisic acid receptor PYR1 with S88P, A89R
B34: A89Q: PYR1 mutant (protein, UniProt O49686 1-191, looked up, variant A89Q)
Abscisic acid receptor PYR1: B1 Abscisic acid receptor PYR1 with S88P, A89Q
B35: H115M: PYR1 mutant (protein, UniProt O49686 1-191, looked up, variant H115M)
Abscisic acid receptor PYR1: B1 Abscisic acid receptor PYR1 with S88P, H115M
B36: P88H: PYR1 mutant (protein, UniProt O49686 1-191, looked up, variant P88H)
Abscisic acid receptor PYR1: B1 Abscisic acid receptor PYR1 with S88H
B37: P88E: PYR1 mutant (protein, UniProt O49686 1-191, looked up, variant P88E)
Abscisic acid receptor PYR1: B1 Abscisic acid receptor PYR1 with S88E
B38: H115R: PYR1 mutant (protein, UniProt O49686 1-191, looked up, variant H115R)
Abscisic acid receptor PYR1: B1 Abscisic acid receptor PYR1 with S88P, H115R

Tested on: HAB1
Test: Yeast two hybrid of pBD-PYR1 site saturation mutants with pACT-HAB1 on 10 μM ABA, β-galactosidase staining
Format: cell-based, Arabidopsis
Design: key: x: Mutations in PYR1 that disrupt ABA-induced binding to PYR1 to HAB1
Details: S. cerevisiae Y190, 10 μM ABA; dead = lack of visible staining in comparison to wild type control
Excerpt: To systematically identify mutations in PYR1 that disrupt its binding to HAB1, we utilized a collection of saturating mutations that contain all possible single amino acid substitutions in 24 conserved interface residues involved in binding HAB1, which was previously constructed for the purpose of engineering constitutively active ABA receptor variants (Mosquna et al., 2011). The interface residues previously mutagenized in this collection are the following: H60, F61, I62, K63, I84, S85, G86, L87, P88, A89, H115, R116, L117, P148, G150, N151, D154, D155, T156, M158, F159, T162, L166, K170. This set was made by mutagenizing a pBD-PYR1 template that encodes a GAL4-DNA binding domain fusion to PYR1, which can be used to assess receptor-HAB1 binding in S. cerevisiae strains co-transformed with pACT-HAB1, which expresses a GAL4 activation domain fusion to HAB1. Mutant pBD-PYR1 clones from the collection are maintained in S. cerevisiae strain Y190 co-transformed with pACT-HAB1. The test strains were spotted onto agar plates containing synthetic dextrose dropout media lacking leucine and tryptophan [SD (-Leu, -Trp)] medium supplemented with 10 μM ABA. After incubating the test plates at 30° C. for two days, colonies were chloroform lysed and stained to reveal […] expression levels and “dead” mutants were defined by lack of visible staining in comparison to a wild type control. This effort defined 237 mutations that disrupt ABA-induced binding of PYR1 to HAB1 (Table 1). Premade yeast drop out supplements (Clontech) were utilized in this and other examples for media preparation, amino acids and other standard chemicals were purchased from Sigma-Aldrich (USA). The naturally occurring (+)-ABA isomer was used in all experiments and purchased from Biosynth Ag (Switzerland).

Molecule | Mutations in PYR1 that disrupt ABA-induced binding to PYR1 to HAB1
B1 | x
B2 | x
B3 | x
B4 | x
B5 | x
B6 | x
B7 | x
B8 | x
B9 | x
B10 | x
B11 | x
B12 | x
B13 | x
B14 | x
B15 | x
B16 | x
B17 | x
B18 | x
B19 | x

Molecule | Mutations in PYR1 that disrupt ABA-induced binding to PYR1 to HAB1
B20 | x
B21 | x
B22 | x
B23 | x
B24 | x
B25 | x
B26 | x
B27 | x
B28 | x
B29 | x
B30 | x
B31 | x
B32 | x
B33 | x
B34 | x
B35 | x
B36 | x
B37 | x
B38 | x
